The text below walks through data of patent publication US20240368549A1, “ENHANCEMENT OF HEMATOPOIETIC STEM CELL AND HEMATOPOIETIC PROGENITOR CELL EXPANSION WITH AGENTS THAT ACTIVATE TAM RECEPTORS” (CANADIAN BLOOD SERVICES, priority 2021, published 2024).

Entries after “also recorded” stand apart in the source; their conditions may differ.

The subject of test [1] is Umbilical cord blood (UCB) CD34+ cells. As to the kind of experiment: Expansion of UCB CD34+ cells cultured 14 days with SCACs, GAS6 or inhibitors. It is filed as cell-based, human. On the procedure: (§1) Umbilical cord blood (UCB) CD34+ cells were cultured in StemSpan™ SFEM (StemCell Technologies) in the presence of different SCACs for 14-days and net fold expansion of TNC, CD34+ cells CD34+CD45RA− cells, and EPCR^High was calculated based on respective population on day-0 (e.g. net TNC day 14/TNC day 0). Control STFL cultures consisted of the same complete media without small molecules. Unless indicated otherwise, all cultures were supplemented with Stem Cell Factor, Flt-3 and Thrombopoietin at 100 ng/ml. All cultures also contained 10 μg/mL low-density lipoprotein (LDL, Stem Ce, Technologies) and 1% penicillin-streptomycin (Gibco). […] The improvement in HSPC expansion provided by the SCACs is exemplified with X2A in FIGS. 2A-2D. […] Culture done with adult CD34+ mobilized peripheral blood stem cells (mPBSC, CAT #70060.2, Stem Cell Technologies) also contained IL-6 (100 ng/ml) as additional cytokine (FIG. 9).
To investigate the impact of AA2P and/or SCACs on expression of AXL and its activation level, HSPC were culture in STFL with or without AA2P or the indicated SCAC for 14 days (FIG. 4F). In some cultures, the AXL kinase inhibitor Bemcentinib or a neutralizing antibody was added to cultures at day 10, and the impact on HSPC expansion was investigated in indicated cultures at day 14. Proteins level were investigated by western blot analysis or intracellular flowcytometry analysis following common procedures with anti-AXL [Goat IgG anti-AXL (Cat #AF154) or anti-p-AXL (Cat #AF2228) or anti-GAS6 (rabbit IgG, Cat #67202S, Cell Signaling Tech.) and appropriate secondary antibodies, R&D systems). […] AXL is expressed by CD34+CD45RA− HSPCs cultured in both X2A and C6 culture (FIG. 5A). […] This support that, even in the absence of exogenous GAS6 , AA2P alone or in combination with other small molecule (i.e. stem cell agonist such as UM171, SR1 . . . ) is capable of driving enough increased endogenous expression of GAS6 and AXL to support the improved expansion of CD34+CD45RA− HSPCs through para-and/or autocrine activation of AXL on HSPCs.
(§2) In each case, GAS6 was added to the cultures from days 7 to 14.
Cell expansion measured after 14 days of culture in STFL culture (FIG. 7A) and in X2A cultures (FIG. 7B). Indeed, as shown therein, the rise in cell growth (TNC) and expansion of HSPC subsets (CD34+ cells, CD34+CD45RA−, EPCRHigh cells) induced by GAS6 can be accomplished by adding GAS6 in cultures at various time point, as early as day 0 and as late as day 10, preferably at day 7.

Test [2] deals with CD34+ mobilized peripheral blood stem cells (mPBSC). As to the kind of experiment: Expansion of adult mobilized peripheral blood stem cell (mPBSC) cultures. It is filed as cell-based, human. The settings on record: GAS6 10 ng/ml, day 7 to 14; STFL and SCAC cultures. On the procedure:
as §1, §2

In the next test the test system is NSG mice. As to the kind of experiment: Engraftment in NSG mice of X2A-expanded cells with GAS6 or GAS6 neutralizing antibody. The class given is in vivo. On the procedure:
Mice group were transplanted with the progeny of 750 expanded CD34+ cells after 14 days of culture. The groups were; […]-expanded cells, […]-expanded cells supplemented with GAS6 (10 ng/ml) or a GAS6 neutralizing antibody (GAS6 Ab) from day-10 to day-14. As shown therein, addition of GAS6 to CB HSPC expansion cultures improves the engraftment achieved from the ex vivo expanded HSPCs.

Consider `Nc1nc(Nc2ccc3c(c2)CC[C@@H](N2CCCC2)CC3)nn1-c1cc2c(nn1)-c1ccccc1CCC2` [Bemcentinib, reference compound], for which, in test [1] (added at day 10, read at day 14, normalized to DMSO), the “effect of AXL kinase inhibition on ability of X2A and C6 to expand HSPCs” value is “reduction; also recorded: decreased”.

On to `Nc1nc(=O)n(-c2cccc(-c3ccccc3)c2)cc1Cl` [Bobcat339, reference compound], for which the “effect of TET inhibition on cell growth” value in test [1] (30 μM, day-10 to day-14) was “reduced cell growth”.

B1: GAS6: natural ligand of the AXL receptor, growth arrest-specific protein 6, added to cultures at 10 ng/mL (protein, UniProt Q14393 31-678, looked up)
Growth arrest-specific …: ALLPAREATQFLRPRQRRAFQVFEEAKQGHLERECVEELCSREEAREVFENDPETDYFYPRYLDCINKYGSPYTKNSGFATCVQNLPDQCTPNPCDRKGTQACQDLMGNFFCLCKAGWGGRLCDKDVNECSQENGGCLQICHNKPGSFHCSCHSGFELSSDGRTCQDIDECADSEACGEARCKNLPGSYSCLCDEGFAYSSQEKACRDVDECLQGRCEQVCVNSPGSYTCHCDGRGGLKLSQDMDTCEDILPCVPFSVAKSVKSLYLGRMFSGTPVIRLRFKRLQPTRLVAEFDFRTFDPEGILLFAGGHQDSTWIVLALRAGRLELQLRYNGVGRVTSSGPVINHGMWQTISVEELARNLVIKVNRDAVMKIAVAGDLFQPERGLYHLNLTVGGIPFHEKDLVQPINPRLDGCMRSWNWLNGEDTTIQETVKVNTRMQCFSVTERGSFYPGSGFAFYSLDYMRTPLDVGTESTWEVEVVAHIRPAADTGVLFALWAPDLRAVPLSVALVDYHSTKKLKKQLVVLAVEHTALALMEIKVCDGQEHVVTVSLRDGEATLEVDGTRGQSEVSAAQLQERLAVLERHLRSPVLTFAGGLPDVPVTSAPVTAFYRGCMTLEVNRRLLDLDEAAYKHSDITAHSCPPVEPAAA
As to B1, the “HSPC expansion with GAS6 in X2A, X2B, STFL or SM6 culture” value in test [1] (FIGS. 5D-5F) is on record as “improved HSPC expansion”. Besides, in test [1] (GAS6 10 ng/mL, days 7 to 14), the “expansion of TNC and HSPC subsets, valproic acid (VPA)-containing cultures” value is given as “improved”; the “expansion of the CB HSPC population, GAS6 with single stem cell agonists or agonist cocktails” value is given as “strongly increases”. Further, in test [1] (GAS6 10 ng/ml, days 7 to 14), the “expansion of HSPC subsets, control STFL cultures” value is given as “improved”; the “expansion of TNC and HSPC subsets, AA2P-containing cultures” value is listed as “improved”; the “expansion of TNC and HSPC subsets, C6-containing cultures” value is reported as “improved”; the “expansion of TNC and HSPC subsets, SM6-containing cultures” value is listed as “improved”. Also, in test [1] (GAS6 10 ng/ml, days 7 to 14), the “expansion of TNC and HSPC subsets, SR1-containing cultures” value is given as “improved”; the “expansion of TNC and HSPC subsets, UM171-containing cultures” value is given as “improved”; the “expansion of TNC and HSPC subsets, X2A-containing cultures” value was “improved”. The “expansion of CB TNC and HSPC subsets, GAS6 added at different time point” value in test [1] (added day 0, 4, 7 or 10, STFL with or without X2A, day 14) is “superior expansion”. In addition, in test [1] (compared to SCACs and C6 alone, 10 ng/mL), the “HSPC expansion, exogenous GAS6 added to SCAC and C6 cultures” value is reported as “further improved HSPC expansion”. Besides, in test [2], the “expansion of TNC and HSPC subsets in mPBSC cultures with GAS6” value is reported as “further increased”. For the same molecule, in the test with NSG mice (X2A cultures + GAS6 10 ng/ml, 3-weeks and 16-weeks post-transplant), the “levels of human platelets and human % CD45+ leucocytes” value is listed as “significantly superior”. Also, the “long-term human BM engraftment (% CD45+)” value in the test on NSG mice (X2A cultures, 18-weeks after transplantation) is given as “improved”. For the same molecule, the “distribution of human lineages downstream HSC” value with NSG mice (X2A+ GAS6 group, BM) is recorded as “normal distribution”. The “proportion of CD34+ HSPC” value with NSG mice (X2A+ GAS6 mice, BM) was “significantly superior”. In the test with NSG mice (X2A+ GAS6 primary transplants), the “human CFU” value is given as “significantly superior” and the “net number of human CD34+ BM cells” value is listed as “significantly superior”. Further, the “serial engraftment activity in secondary transplants” value in the test with NSG mice (primary X2A+ GAS6 grafts vs X2A grafts, 12-weeks) was “superior serial engraftment activity”.
